Results published in patent US20140087995A1 (published 2014).
Numbered stars: 1 amine (or outer) side, 2 acyl side, 3 side chain; on linkers, the order of the positions; unused ones are H or OH. Bridge positions count the residues as written; N and C are the ends. Side chains are listed from the residue outwards. Ends that are not written are not given here. * marks the point of attachment. C20 diacid = O=C(O)CCCCCCCCCCCCCCCCCCC(=O)*; γGlu = O=C(O)[C@H](CCC(=O)[*:2])N[*:1]

T1: human amylin receptor (amylin 3(a) receptor: human calcitonin receptor co-expressed with RAMP-3) (human, UniProt P30988 25-474; O60896 24-148, limits assumed)
T1 sequence (looked up) 1: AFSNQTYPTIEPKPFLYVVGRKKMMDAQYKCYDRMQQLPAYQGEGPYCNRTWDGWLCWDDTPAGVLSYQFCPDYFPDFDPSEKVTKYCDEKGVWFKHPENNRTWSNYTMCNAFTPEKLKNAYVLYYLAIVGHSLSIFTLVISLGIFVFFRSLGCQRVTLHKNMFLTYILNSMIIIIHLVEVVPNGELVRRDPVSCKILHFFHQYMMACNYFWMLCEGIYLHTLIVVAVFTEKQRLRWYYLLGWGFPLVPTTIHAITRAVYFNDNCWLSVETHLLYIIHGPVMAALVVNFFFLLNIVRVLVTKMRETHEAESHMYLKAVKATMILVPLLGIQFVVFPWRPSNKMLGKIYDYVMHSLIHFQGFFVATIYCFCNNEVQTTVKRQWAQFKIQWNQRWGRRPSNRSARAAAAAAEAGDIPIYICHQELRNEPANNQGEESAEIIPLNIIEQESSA
T1 sequence (looked up) 2: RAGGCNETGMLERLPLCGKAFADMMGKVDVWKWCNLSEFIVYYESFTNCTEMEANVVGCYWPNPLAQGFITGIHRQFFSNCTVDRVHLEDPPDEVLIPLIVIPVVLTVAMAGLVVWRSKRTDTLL

T2: human calcitonin receptor (human, UniProt P30988 25-474)
T2 sequence (looked up): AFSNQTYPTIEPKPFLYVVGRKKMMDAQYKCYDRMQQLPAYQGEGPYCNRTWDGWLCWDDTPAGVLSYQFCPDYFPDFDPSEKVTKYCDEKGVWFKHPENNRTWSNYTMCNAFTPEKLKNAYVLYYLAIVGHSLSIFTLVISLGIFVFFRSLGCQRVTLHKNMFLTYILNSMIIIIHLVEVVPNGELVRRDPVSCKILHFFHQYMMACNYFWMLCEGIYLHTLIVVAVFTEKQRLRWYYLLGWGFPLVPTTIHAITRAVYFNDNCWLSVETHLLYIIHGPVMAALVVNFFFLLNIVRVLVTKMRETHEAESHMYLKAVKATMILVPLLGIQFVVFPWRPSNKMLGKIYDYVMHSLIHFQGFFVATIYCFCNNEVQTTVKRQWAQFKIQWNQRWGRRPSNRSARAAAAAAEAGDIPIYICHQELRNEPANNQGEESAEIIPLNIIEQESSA


Assays:
[1] = molecular target: T1, human amylin receptor (amylin 3(a) …); assay: cell-based or functional assay
[2] = molecular target: T2, human calcitonin receptor; assay: cell-based or functional assay

hAmylin-R funct. EC50 [1] [nM] | hCTR funct. EC50 [2] [nM] | Ratio hCT/hAmylin funct. [1] | Binder
0.04 | 0.715 |  | K([γGlu-C20 diacid])CNTATCATQRLAHFLRHSSPNFGAIPSSTNVGSNTY-NH2 (disulfide 2-7; N-terminus assumed; SMILES CC[C@H](C)[C@H](NC(=O)[C@H](C)NC(=O)CNC(=O)[C@H](Cc1ccccc1)NC(=O)[C@H](CC(N)=O)NC(=O)[C@@H]1CCCN1C(=O)[C@H](CO)NC(=O)[C@H](CO)NC(=O)[C@H](Cc1c[nH]cn1)NC(=O)[C@H](CCCNC(=N)N)NC(=O)[C@H](CC(C)C)NC(=O)[C@H](Cc1ccccc1)NC(=O)[C@H](Cc1c[nH]cn1)NC(=O)[C@H](C)NC(=O)[C@H](CC(C)C)NC(=O)[C@H](CCCNC(=N)N)NC(=O)[C@H](CCC(N)=O)NC(=O)[C@@H](NC(=O)[C@H](C)NC(=O)[C@@H]1CSSC[C@H](NC(=O)[C@@H](N)CCCCNC(=O)CC[C@H](NC(=O)CCCCCCCCCCCCCCCCCCC(=O)O)C(=O)O)C(=O)N[C@@H](CC(N)=O)C(=O)N[C@@H]([C@@H](C)O)C(=O)N[C@@H](C)C(=O)N[C@@H]([C@@H](C)O)C(=O)N1)[C@@H](C)O)C(=O)N1CCC[C@H]1C(=O)N[C@@H](CO)C(=O)N[C@@H](CO)C(=O)N[C@H](C(=O)N[C@@H](CC(N)=O)C(=O)N[C@H](C(=O)NCC(=O)N[C@@H](CO)C(=O)N[C@@H](CC(N)=O)C(=O)N[C@H](C(=O)N[C@@H](Cc1ccc(O)cc1)C(N)=O)[C@@H](C)O)C(C)C)[C@@H](C)O, also called compound 70) [N^ε1-[(4S)-4-carboxy-4-(19-carboxynonadecanoylamino)butanoyl]-[His14,Arg17,Pro21,Pro27]-h-amylin]
0.044 | 0.539 |  | K([γGlu-C20 diacid])CNTATCATQRLAHFLRHSSPNFGAIPSSTPVGSNTY-NH2 (disulfide 2-7; N-terminus assumed; SMILES CC[C@H](C)[C@H](NC(=O)[C@H](C)NC(=O)CNC(=O)[C@H](Cc1ccccc1)NC(=O)[C@H](CC(N)=O)NC(=O)[C@@H]1CCCN1C(=O)[C@H](CO)NC(=O)[C@H](CO)NC(=O)[C@H](Cc1c[nH]cn1)NC(=O)[C@H](CCCNC(=N)N)NC(=O)[C@H](CC(C)C)NC(=O)[C@H](Cc1ccccc1)NC(=O)[C@H](Cc1c[nH]cn1)NC(=O)[C@H](C)NC(=O)[C@H](CC(C)C)NC(=O)[C@H](CCCNC(=N)N)NC(=O)[C@H](CCC(N)=O)NC(=O)[C@@H](NC(=O)[C@H](C)NC(=O)[C@@H]1CSSC[C@H](NC(=O)[C@@H](N)CCCCNC(=O)CC[C@H](NC(=O)CCCCCCCCCCCCCCCCCCC(=O)O)C(=O)O)C(=O)N[C@@H](CC(N)=O)C(=O)N[C@@H]([C@@H](C)O)C(=O)N[C@@H](C)C(=O)N[C@@H]([C@@H](C)O)C(=O)N1)[C@@H](C)O)C(=O)N1CCC[C@H]1C(=O)N[C@@H](CO)C(=O)N[C@@H](CO)C(=O)N[C@H](C(=O)N1CCC[C@H]1C(=O)N[C@H](C(=O)NCC(=O)N[C@@H](CO)C(=O)N[C@@H](CC(N)=O)C(=O)N[C@H](C(=O)N[C@@H](Cc1ccc(O)cc1)C(N)=O)[C@@H](C)O)C(C)C)[C@@H](C)O, also called compound 62)
0.389 | 1.95 |  | KCNTATCATQRLADFLRHSSK([γGlu-γGlu-C20 diacid])NFGAIPSSTNVGSDTY-NH2 (disulfide 2-7; N-terminus assumed; SMILES CC[C@H](C)[C@H](NC(=O)[C@H](C)NC(=O)CNC(=O)[C@H](Cc1ccccc1)NC(=O)[C@H](CC(N)=O)NC(=O)[C@H](CCCCNC(=O)CC[C@H](NC(=O)CC[C@H](NC(=O)CCCCCCCCCCCCCCCCCCC(=O)O)C(=O)O)C(=O)O)NC(=O)[C@H](CO)NC(=O)[C@H](CO)NC(=O)[C@H](Cc1c[nH]cn1)NC(=O)[C@H](CCCNC(=N)N)NC(=O)[C@H](CC(C)C)NC(=O)[C@H](Cc1ccccc1)NC(=O)[C@H](CC(=O)O)NC(=O)[C@H](C)NC(=O)[C@H](CC(C)C)NC(=O)[C@H](CCCNC(=N)N)NC(=O)[C@H](CCC(N)=O)NC(=O)[C@@H](NC(=O)[C@H](C)NC(=O)[C@@H]1CSSC[C@H](NC(=O)[C@@H](N)CCCCN)C(=O)N[C@@H](CC(N)=O)C(=O)N[C@@H]([C@@H](C)O)C(=O)N[C@@H](C)C(=O)N[C@@H]([C@@H](C)O)C(=O)N1)[C@@H](C)O)C(=O)N1CCC[C@H]1C(=O)N[C@@H](CO)C(=O)N[C@@H](CO)C(=O)N[C@H](C(=O)N[C@@H](CC(N)=O)C(=O)N[C@H](C(=O)NCC(=O)N[C@@H](CO)C(=O)N[C@@H](CC(=O)O)C(=O)N[C@H](C(=O)N[C@@H](Cc1ccc(O)cc1)C(N)=O)[C@@H](C)O)C(C)C)[C@@H](C)O, also called compound 59)
0.298 | 19.2 | 64.4 | K([γGlu-γGlu-C20 diacid])CNTATCATQRLANFLRHSSPNFGAIPSSTNVGHNTY-NH2 (disulfide 2-7; N-terminus assumed; SMILES CC[C@H](C)[C@H](NC(=O)[C@H](C)NC(=O)CNC(=O)[C@H](Cc1ccccc1)NC(=O)[C@H](CC(N)=O)NC(=O)[C@@H]1CCCN1C(=O)[C@H](CO)NC(=O)[C@H](CO)NC(=O)[C@H](Cc1c[nH]cn1)NC(=O)[C@H](CCCNC(=N)N)NC(=O)[C@H](CC(C)C)NC(=O)[C@H](Cc1ccccc1)NC(=O)[C@H](CC(N)=O)NC(=O)[C@H](C)NC(=O)[C@H](CC(C)C)NC(=O)[C@H](CCCNC(=N)N)NC(=O)[C@H](CCC(N)=O)NC(=O)[C@@H](NC(=O)[C@H](C)NC(=O)[C@@H]1CSSC[C@H](NC(=O)[C@@H](N)CCCCNC(=O)CC[C@H](NC(=O)CC[C@H](NC(=O)CCCCCCCCCCCCCCCCCCC(=O)O)C(=O)O)C(=O)O)C(=O)N[C@@H](CC(N)=O)C(=O)N[C@@H]([C@@H](C)O)C(=O)N[C@@H](C)C(=O)N[C@@H]([C@@H](C)O)C(=O)N1)[C@@H](C)O)C(=O)N1CCC[C@H]1C(=O)N[C@@H](CO)C(=O)N[C@@H](CO)C(=O)N[C@H](C(=O)N[C@@H](CC(N)=O)C(=O)N[C@H](C(=O)NCC(=O)N[C@@H](Cc1c[nH]cn1)C(=O)N[C@@H](CC(N)=O)C(=O)N[C@H](C(=O)N[C@@H](Cc1ccc(O)cc1)C(N)=O)[C@@H](C)O)C(C)C)[C@@H](C)O, also called compound 86)
0.773 | 6.55 | 8.5 | K([γGlu-γGlu-C20 diacid])CNTATCATQRLAEFLRHSSPNFGAIPSSTNVGRNTY-NH2 (disulfide 2-7; N-terminus assumed; SMILES CC[C@H](C)[C@H](NC(=O)[C@H](C)NC(=O)CNC(=O)[C@H](Cc1ccccc1)NC(=O)[C@H](CC(N)=O)NC(=O)[C@@H]1CCCN1C(=O)[C@H](CO)NC(=O)[C@H](CO)NC(=O)[C@H](Cc1c[nH]cn1)NC(=O)[C@H](CCCNC(=N)N)NC(=O)[C@H](CC(C)C)NC(=O)[C@H](Cc1ccccc1)NC(=O)[C@H](CCC(=O)O)NC(=O)[C@H](C)NC(=O)[C@H](CC(C)C)NC(=O)[C@H](CCCNC(=N)N)NC(=O)[C@H](CCC(N)=O)NC(=O)[C@@H](NC(=O)[C@H](C)NC(=O)[C@@H]1CSSC[C@H](NC(=O)[C@@H](N)CCCCNC(=O)CC[C@H](NC(=O)CC[C@H](NC(=O)CCCCCCCCCCCCCCCCCCC(=O)O)C(=O)O)C(=O)O)C(=O)N[C@@H](CC(N)=O)C(=O)N[C@@H]([C@@H](C)O)C(=O)N[C@@H](C)C(=O)N[C@@H]([C@@H](C)O)C(=O)N1)[C@@H](C)O)C(=O)N1CCC[C@H]1C(=O)N[C@@H](CO)C(=O)N[C@@H](CO)C(=O)N[C@H](C(=O)N[C@@H](CC(N)=O)C(=O)N[C@H](C(=O)NCC(=O)N[C@@H](CCCNC(=N)N)C(=O)N[C@@H](CC(N)=O)C(=O)N[C@H](C(=O)N[C@@H](Cc1ccc(O)cc1)C(N)=O)[C@@H](C)O)C(C)C)[C@@H](C)O, also called compound 88)
0.404 | 11.2 | 27.8 | K([γGlu-γGlu-C20 diacid])CNTATCATQRLAEFLRHSSPNFGAIPSSTNVGSRTY-NH2 (disulfide 2-7; N-terminus assumed; SMILES CC[C@H](C)[C@H](NC(=O)[C@H](C)NC(=O)CNC(=O)[C@H](Cc1ccccc1)NC(=O)[C@H](CC(N)=O)NC(=O)[C@@H]1CCCN1C(=O)[C@H](CO)NC(=O)[C@H](CO)NC(=O)[C@H](Cc1c[nH]cn1)NC(=O)[C@H](CCCNC(=N)N)NC(=O)[C@H](CC(C)C)NC(=O)[C@H](Cc1ccccc1)NC(=O)[C@H](CCC(=O)O)NC(=O)[C@H](C)NC(=O)[C@H](CC(C)C)NC(=O)[C@H](CCCNC(=N)N)NC(=O)[C@H](CCC(N)=O)NC(=O)[C@@H](NC(=O)[C@H](C)NC(=O)[C@@H]1CSSC[C@H](NC(=O)[C@@H](N)CCCCNC(=O)CC[C@H](NC(=O)CC[C@H](NC(=O)CCCCCCCCCCCCCCCCCCC(=O)O)C(=O)O)C(=O)O)C(=O)N[C@@H](CC(N)=O)C(=O)N[C@@H]([C@@H](C)O)C(=O)N[C@@H](C)C(=O)N[C@@H]([C@@H](C)O)C(=O)N1)[C@@H](C)O)C(=O)N1CCC[C@H]1C(=O)N[C@@H](CO)C(=O)N[C@@H](CO)C(=O)N[C@H](C(=O)N[C@@H](CC(N)=O)C(=O)N[C@H](C(=O)NCC(=O)N[C@@H](CO)C(=O)N[C@@H](CCCNC(=N)N)C(=O)N[C@H](C(=O)N[C@@H](Cc1ccc(O)cc1)C(N)=O)[C@@H](C)O)C(C)C)[C@@H](C)O, also called compound 89)
